According to patent publication US20240228647A1, “OFATUMUMAB FOR TREATING MULTIPLE SCLEROSIS IN ASIAN PATIENTS” (Novartis AG, priority 2021, published 2024):
Read-outs that look alike come from different tables or passages of the source. Marks after values point to notes of the source that are not given here.

Columns and labels:
patients with RMS [1] = assay: Annualized relapse rate (ARR), confirmed relapses, Phase III Studies I and II; assay type: in vivo, human; details: for ARR (number of relapses/patient years) / Adjusted ARR (9559) / Number of relapses (confirmed): FAS; for ARR rate reduction (%): vs teriflunomide
Description: (§1) Ofatumumab was investigated in 1882 patients with RMS from two identical Phase III randomized, double-blind, double-dummy, active-comparator controlled, parallel-group, multicenter studies of identical design (Study I and Study II). Patients were randomized to receive either ofatumumab, OMB (20 mg s.c injections every 4 weeks, after an initial loading regimen of 3 injections on Day 1, 7, and 14), or teriflunomide, TER (14 mg p.o. once a day) as active comparator. For brevity, the teriflunomide data are not shown hereinafter.
(§2) The maximum treatment duration for an individual patient was 30 study months (approximately 2.5 years). The two studies included a total of 71 patients of Asian race (36 patients in ofatumumab and 35 patients in teriflunomide treatment groups). This Example also includes the Asian patients data from oncology studies (Study A and Study B), as supportive data, where required.
ARR was the primary efficacy endpoint in the pivotal Phase III studies. Treatment with ofatumumab and teriflunomide were both associated with relatively low ARRs. in the Asian subgroups, with 4 to 5 confirmed relapses in any of the treatment groups (ARRs of 0.08-0.09) (Table 2).

patients with RMS [2] = assay: Time to confirmed disability worsening (3mCDW, 6mCDW), Phase III Studies I and II; assay type: in vivo, human; details: for 3mCDW event rate n/N (%) / 3mCDW events n / 6mCDW event rate n/N (%) / 6mCDW events n: FAS
Description: as §1, §2
Time to 3 mCDW and 6 mCDW were key secondary efficacy endpoints in the pivotal Phase III studies.

serum IgG and IgM levels = assay: Serum IgG and IgM levels under long-term ofatumumab treatment; assay type: in vivo, human
Description: Serum immunoglobulin (Ig) levels can be determined routinely in clinical practice. In the present application serum Ig levels can preferably be determined by immunoturbidimetry. Preferably a Roche cobas® Analyzer was used, especially module c of the cobas® analyser. In a preferred embodiment Ig levels can be determined by using a cobas® c 311 analyzer. It is further preferred that IgG measurements are carried out as described in the cobas® leaflet “IGG-2 Tina-quant IgG Gen.2”, preferably version 11.0 dated 2016-02 and IgM measurements as described in the leaflet “IGM-2 Tina-quant IgM Gen.2”, preferably version 13.0 dated 2018-11.
Serum samples were preferably kept at 2-8° C. before measurement.
Patients were subjected to a long term treatment. Patients received ofatumumab 20 mg sc injections every 4 weeks (after an initial loading regimen of 20 mg sc doses on weeks 0, 1 and 2).

[3] = system: patients with Relapsing Multiple Sclerosis; details: for COVID-19 outcome / COVID-19 symptoms duration: serious case
[4] = patient 5409018, OMB interrupted
[5] = patient 5608014, OMB interrupted
[6] = patient 5800004, drug withdrawn
[7] = patient 5801015, OMB interrupted

## ofatumumab [OMB]
Patients with RMS [1]; Asian (race)
  ARR (number of relapses/patient years): (0.084)
  Adjusted ARR (9559): 0.08 (0.03, 0.24)
  Number of relapses (confirmed): 4/47
  ARR rate reduction (%): 11.8/0.862%
Patients with RMS [1]; Rest of World (race)
  ARR (number of relapses/patient years): (0.122)
  Adjusted ARR (9559): 0.12 (0.10, 0.14)
  Number of relapses (confirmed): 181/1490
  ARR rate reduction (%): 53.3/<0.001* %
Patients with RMS [1]; overall population
  Reduction of adjusted ARR compared with teriflunomide: 52.6%
Patients with RMS [1]; Rest of World (race), listed as ofatumumab
  ARR rate reduction (%): 53.3%
Patients with RMS [2]; Asian (race)
  3mCDW event rate n/N (%): (8.3) %
  3mCDW events n: 3/36
  6mCDW event rate n/N (%): (8.3) %
  6mCDW events n: 3/36
Patients with RMS [2]; Rest of World (race)
  3mCDW event rate n/N (%): (9.3) %
  3mCDW events n: 85/910
  6mCDW event rate n/N (%): (7.5) %
  6mCDW events n: 68/910
Patients with RMS [2]; overall population
  3mCDW risk reduction compared with teriflunomide: 33.0%
  6mCDW risk reduction compared with teriflunomide: 31.0%
Serum IgG and IgM levels; 20 mg sc every 4 weeks, FIGS. 3 and 4
  IgM levels with longer duration: A reduction in IgM levels
Serum IgG and IgM levels; 20 mg sc every 4 weeks, follow-up of >4 years, FIG. 1
  IgG levels over the long-term follow-up: stable
Serum IgG and IgM levels; 20 mg sc every 4 weeks, longer duration, FIGS. 3 and 4
  IgM levels versus lower limit of normal: levels remained above the lower limit of normal
Serum IgG and IgM levels; after two years (96 weeks), FIG. 6
  Increase of IgG levels: about 3%
[3]; non-serious cases (n = 29)
  COVID-19 outcome Ongoing, cases: 0
  COVID-19 outcome Recovered, cases: 29
  COVID-19 outcome Recovering, cases: 0
[3]; of 35 confirmed cases
  Complete recovery from COVID-19, cases: 34
[3]; [4]
  COVID-19 outcome: Complete
  COVID-19 symptoms duration: ~50 days
[3]; [5]
  COVID-19 outcome: Complete
  COVID-19 symptoms duration: 18 days
[3]; [6]
  COVID-19 outcome: Fatal
  COVID-19 symptoms duration: ~30 days
[3]; patient 5800043, OMB continued
  COVID-19 outcome: Complete
  COVID-19 symptoms duration: 11 days
[3]; [7]
  COVID-19 outcome: Complete
  COVID-19 symptoms duration: 15 days
[3]; patient 5806001, OMB continued
  COVID-19 outcome: Complete
  COVID-19 symptoms duration: 10 days
[3]; serious cases (n = 6)
  COVID-19 outcome Fatal, cases: 1
  COVID-19 outcome Recovered, cases: 5
